# Test results published in patent US20140348819A1, “Methods of Treating Cancer” (Dana-Farber Cancer Institute, Inc., priority 2011, published 2014).
# System: six V600E BRAF melanoma cell lines
# Experiment: Screening of recombinant RTK ligands for ability to confer resistance to BRAFi (PLX4720) or MEKi (PD184352) (Table 4)
# Format: cell-based, human
# Parameters: ability of recombinant RTK ligand to confer resistance / ability of recombinant RTK ligand to confer resistance (screening value): scale not given here
# Summary of the method: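 Resistance to BRAFi (PLX4720) or MEKi (PD184352) was tested in six V600E BRAF melanoma lines given one of 22 recombinant RTK ligands. For a subset of RTKs, activation was checked by high-throughput tyrosine kinase phosphorylation profiling and western blot.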
molecule,measurement,setting,value
"Gas6 (protein, UniProt Q14393 31-678, looked up) Growth arrest-specific …: ALLPAREATQFLRPRQRRAFQVFEEAKQGHLERECVEELCSREEAREVFENDPETDYFYPRYLDCINKYGSPYTKNSGFATCVQNLPDQCTPNPCDRKGTQACQDLMGNFFCLCKAGWGGRLCDKDVNECSQENGGCLQICHNKPGSFHCSCHSGFELSSDGRTCQDIDECADSEACGEARCKNLPGSYSCLCDEGFAYSSQEKACRDVDECLQGRCEQVCVNSPGSYTCHCDGRGGLKLSQDMDTCEDILPCVPFSVAKSVKSLYLGRMFSGTPVIRLRFKRLQPTRLVAEFDFRTFDPEGILLFAGGHQDSTWIVLALRAGRLELQLRYNGVGRVTSSGPVINHGMWQTISVEELARNLVIKVNRDAVMKIAVAGDLFQPERGLYHLNLTVGGIPFHEKDLVQPINPRLDGCMRSWNWLNGEDTTIQETVKVNTRMQCFSVTERGSFYPGSGFAFYSLDYMRTPLDVGTESTWEVEVVAHIRPAADTGVLFALWAPDLRAVPLSVALVDYHSTKKLKKQLVVLAVEHTALALMEIKVCDGQEHVVTVSLRDGEATLEVDGTRGQSEVSAAQLQERLAVLERHLRSPVLTFAGGLPDVPVTSAPVTAFYRGCMTLEVNRRLLDLDEAAYKHSDITAHSCPPVEPAAA",ability of recombinant RTK ligand to confer resistance,"A2058, PD184352 - 1 uM, ligand 6.25 ng/ml",0.99
same,ability of recombinant RTK ligand to confer resistance,"A2058, PD184352 - 1 uM, ligand 25 ng/ml",0.97
same,ability of recombinant RTK ligand to confer resistance,"A2058, PD184352 - 1 uM, ligand 100 ng/ml",1.02
same,ability of recombinant RTK ligand to confer resistance,"A2058, PD184352 - 1 uM, ligand 400 ng/ml",0.97
same,ability of recombinant RTK ligand to confer resistance,"A2058, PD184352 - 1 uM, ligand 1600 ng/ml",0.95
same,ability of recombinant RTK ligand to confer resistance,"A2058, PLX4720 - 2 uM, ligand 6.25 ng/ml",1.01
same,ability of recombinant RTK ligand to confer resistance,"A2058, PLX4720 - 2 uM, ligand 25 ng/ml",1.00
same,ability of recombinant RTK ligand to confer resistance,"A2058, PLX4720 - 2 uM, ligand 100 ng/ml",0.98
same,ability of recombinant RTK ligand to confer resistance,"A2058, PLX4720 - 2 uM, ligand 400 ng/ml",0.98
same,ability of recombinant RTK ligand to confer resistance,"A2058, PLX4720 - 2 uM, ligand 1600 ng/ml",0.97
same,ability of recombinant RTK ligand to confer resistance,"C32, PD184352 - 1 uM, ligand 6.25 ng/ml",1.02
same,ability of recombinant RTK ligand to confer resistance,"C32, PD184352 - 1 uM, ligand 25 ng/ml",1.01
same,ability of recombinant RTK ligand to confer resistance,"C32, PD184352 - 1 uM, ligand 100 ng/ml",1.01
same,ability of recombinant RTK ligand to confer resistance,"C32, PD184352 - 1 uM, ligand 400 ng/ml",1.15
same,ability of recombinant RTK ligand to confer resistance,"C32, PD184352 - 1 uM, ligand 1600 ng/ml",0.91
same,ability of recombinant RTK ligand to confer resistance,"C32, PLX4720 - 2 uM, ligand 6.25 ng/ml",1.05
same,ability of recombinant RTK ligand to confer resistance,"C32, PLX4720 - 2 uM, ligand 25 ng/ml",0.89
same,ability of recombinant RTK ligand to confer resistance,"C32, PLX4720 - 2 uM, ligand 100 ng/ml",1.00
same,ability of recombinant RTK ligand to confer resistance,"C32, PLX4720 - 2 uM, ligand 400 ng/ml",1.05
same,ability of recombinant RTK ligand to confer resistance,"C32, PLX4720 - 2 uM, ligand 1600 ng/ml",0.95
same,ability of recombinant RTK ligand to confer resistance,"Colo 829, PD184352 - 1 uM, ligand 6.25 ng/ml",0.98
same,ability of recombinant RTK ligand to confer resistance,"Colo 829, PD184352 - 1 uM, ligand 25 ng/ml",1.01
same,ability of recombinant RTK ligand to confer resistance,"Colo 829, PD184352 - 1 uM, ligand 100 ng/ml",0.98
same,ability of recombinant RTK ligand to confer resistance,"Colo 829, PD184352 - 1 uM, ligand 400 ng/ml",0.99
same,ability of recombinant RTK ligand to confer resistance,"Colo 829, PD184352 - 1 uM, ligand 1600 ng/ml",1.02
same,ability of recombinant RTK ligand to confer resistance,"Colo 829, PLX4720 - 2 uM, ligand 6.25 ng/ml",0.97
same,ability of recombinant RTK ligand to confer resistance,"Colo 829, PLX4720 - 2 uM, ligand 25 ng/ml",1.02
same,ability of recombinant RTK ligand to confer resistance,"Colo 829, PLX4720 - 2 uM, ligand 100 ng/ml",0.94
same,ability of recombinant RTK ligand to confer resistance,"Colo 829, PLX4720 - 2 uM, ligand 400 ng/ml",0.99
same,ability of recombinant RTK ligand to confer resistance,"Colo 829, PLX4720 - 2 uM, ligand 1600 ng/ml",1.03
same,ability of recombinant RTK ligand to confer resistance,"G-361, PD184352 - 1 uM, ligand 6.25 ng/ml",1.03
same,ability of recombinant RTK ligand to confer resistance,"G-361, PD184352 - 1 uM, ligand 25 ng/ml",1.00
same,ability of recombinant RTK ligand to confer resistance,"G-361, PD184352 - 1 uM, ligand 100 ng/ml",0.91
same,ability of recombinant RTK ligand to confer resistance,"G-361, PD184352 - 1 uM, ligand 400 ng/ml",0.94
same,ability of recombinant RTK ligand to confer resistance,"G-361, PD184352 - 1 uM, ligand 1600 ng/ml",0.88
same,ability of recombinant RTK ligand to confer resistance,"G-361, PLX4720 - 2 uM, ligand 6.25 ng/ml",0.97
same,ability of recombinant RTK ligand to confer resistance,"G-361, PLX4720 - 2 uM, ligand 25 ng/ml",0.95
same,ability of recombinant RTK ligand to confer resistance,"G-361, PLX4720 - 2 uM, ligand 100 ng/ml",0.98
same,ability of recombinant RTK ligand to confer resistance,"G-361, PLX4720 - 2 uM, ligand 400 ng/ml",0.97
same,ability of recombinant RTK ligand to confer resistance,"G-361, PLX4720 - 2 uM, ligand 1600 ng/ml",0.85
same,ability of recombinant RTK ligand to confer resistance,"SK-MEL-5, PD184352 - 1 uM, ligand 6.25 ng/ml",0.99
same,ability of recombinant RTK ligand to confer resistance,"SK-MEL-5, PD184352 - 1 uM, ligand 25 ng/ml",1.01
same,ability of recombinant RTK ligand to confer resistance,"SK-MEL-5, PD184352 - 1 uM, ligand 100 ng/ml",0.97
same,ability of recombinant RTK ligand to confer resistance,"SK-MEL-5, PD184352 - 1 uM, ligand 400 ng/ml",0.89
same,ability of recombinant RTK ligand to confer resistance,"SK-MEL-5, PD184352 - 1 uM, ligand 1600 ng/ml",0.94
same,ability of recombinant RTK ligand to confer resistance,"SK-MEL-5, PLX4720 - 2 uM, ligand 6.25 ng/ml",0.98
same,ability of recombinant RTK ligand to confer resistance,"SK-MEL-5, PLX4720 - 2 uM, ligand 25 ng/ml",1.00
same,ability of recombinant RTK ligand to confer resistance,"SK-MEL-5, PLX4720 - 2 uM, ligand 100 ng/ml",1.03
same,ability of recombinant RTK ligand to confer resistance,"SK-MEL-5, PLX4720 - 2 uM, ligand 400 ng/ml",1.05
same,ability of recombinant RTK ligand to confer resistance,"SK-MEL-5, PLX4720 - 2 uM, ligand 1600 ng/ml",0.97
same,ability of recombinant RTK ligand to confer resistance,"SK-MEL-28, PD184352 - 1 uM, ligand 6.25 ng/ml",1.03
same,ability of recombinant RTK ligand to confer resistance,"SK-MEL-28, PD184352 - 1 uM, ligand 25 ng/ml",0.87
same,ability of recombinant RTK ligand to confer resistance,"SK-MEL-28, PD184352 - 1 uM, ligand 100 ng/ml",1.00
same,ability of recombinant RTK ligand to confer resistance,"SK-MEL-28, PD184352 - 1 uM, ligand 400 ng/ml",1.01
same,ability of recombinant RTK ligand to confer resistance,"SK-MEL-28, PD184352 - 1 uM, ligand 1600 ng/ml",1.14
same,ability of recombinant RTK ligand to confer resistance,"SK-MEL-28, PLX4720 - 2 uM, ligand 6.25 ng/ml",1.13
same,ability of recombinant RTK ligand to confer resistance,"SK-MEL-28, PLX4720 - 2 uM, ligand 25 ng/ml",0.96
same,ability of recombinant RTK ligand to confer resistance,"SK-MEL-28, PLX4720 - 2 uM, ligand 100 ng/ml",1.04
same,ability of recombinant RTK ligand to confer resistance,"SK-MEL-28, PLX4720 - 2 uM, ligand 400 ng/ml",1.08
same,ability of recombinant RTK ligand to confer resistance,"SK-MEL-28, PLX4720 - 2 uM, ligand 1600 ng/ml",1.22
